Data: US20120015347A1

What was measured:
[1] = target: HEL-Dylight488 conjugate (hen egg lysozyme labeled with Dylight488) (chicken) (UniProt P00698); experiment: microfluidic fluorescence bead assay; mAb captured on rabbit anti-mouse pAb Protein A beads, labeled antigen in flow
[2] = target: HEL-Dylight633 conjugate (hen egg lysozyme labeled with Dylight633) (chicken) (UniProt P00698); experiment: microfluidic fluorescence bead assay; compared with D1.3 mAb on HEL
[3] = target: HEL-Dylight633 conjugate (hen egg lysozyme labeled with Dylight633) (chicken) (UniProt P00698); experiment: microfluidic fluorescence bead assay; mAb captured on rabbit anti-mouse pAb Protein A beads, labeled antigen in flow

Substance | Kd [1] [pM] | fold larger association rate constant than D1.3 mAb [2] [fold] | fold smaller dissociation rate constant than D1.3 mAb [2] [fold] | fold smaller equilibrium dissociation constant than D1.3 [2] [fold] | Kd [3] [pM] | koff [3] [s⁻¹] | kon [3] [M⁻¹ s⁻¹]
D1.3 mouse monoclonal antibody (mAb) to lysozyme | 1200 | – | – | – | – | – | –
HyHEL-5 mouse monoclonal antibody to lysozyme | – | 4 | 10 | 40 | 30 | 0.000169 | 5.75e+06
